± gives the standard error. This sample holds only a part of the variants without activity.
B1: glmS ribozyme (parent)
chain: AUAAAAGCGCCAGAACUACAGAAAUGUAGUUGACGAGGAGGAGGUUUAUCGAAUUUUCGGCGGAUGCCUCCAAA

Variants of: B1
Assay: self-cleavage kobs at 2500 uM GlcN6P; higher = faster cleavage; RNA array
Settings: with glucosamine-6-phosphate
Method in brief: (§1)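 Glucosamine-6-phosphate (40 μM to 10 mM) in HEPES/KCl/Mg(OAc)2 buffer was flowed over sequenced MiSeq chips, and tiles were imaged over ~14 h. Barcoded ribozyme variants there had been transcribed in situ by E. coli RNA polymerase and were tracked through a hybridised Cy3 probe at 37 °C. One- or two-exponential decay fits to per-tile medians, normalised to baseline and to non-cleaving reference variants, gave kobs. kcat and KM came from weighted Michaelis–Menten fits across concentrations.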

Variant | self-cleavage kobs at 2500 uM GlcN6P [s⁻¹]
G44C U55C C70G | < 1e-05
C34U G38U C50G | 0.000215 ± 5.7e-05
A6C U31C G59C G62U | < 1e-05
A14G U47A G66C | 0.00101 ± 0.00023
C10A C16U A48U | < 1e-05
C11U A14C A39G | 0.000472 ± 0.00019
C34U U46G G66U | < 1e-05
C8A G35A G59A C70U | < 1e-05
C11G C61A C68A | 8.83e-05 ± 2.3e-05
G32U U54C G59C C68U | < 1e-05
G35C G60U C67A | < 1e-05
C16U A53U U54G C58A | 3.59e-05 ± 1.1e-05
G41A U55A U57C A64U | < 1e-05
A6G G41A G43C C50G C61U | < 1e-05
U45G G60U G62C C70U | < 1e-05
C11U U30C A52G A64U | < 1e-05
G60U U69A | < 1e-05
A6U U54A | 0.000837 ± 0.00027
A12U G44C A53U | 6.46e-05 ± 1.9e-05
A12C G13C A42U U49C | < 1e-05
C11G A33U U46G G51C U54A | < 1e-05
A15G G51U G63U C68G | 0.000286 ± 0.00011
A14C A33C U49A G66C | < 1e-05

Variant | self-cleavage kobs at 2500 uM GlcN6P [s⁻¹]
G44A G51U U57A | < 1e-05
G29A U55A C67U | 0.000242 ± 4.9e-05
U46A A52C C61U | < 1e-05
G13U C19A C70U | 0.000171 ± 2.8e-05
C10A A14C A64U | < 1e-05
G29A U56A A64G | 0.00201 ± 0.00043
C10U A42C G62A U65G C68U | < 1e-05
C50U G63U C68G | 7.59e-05 ± 3.2e-05
G7U G9U U47A | < 1e-05
A12G G32C A36U | < 1e-05
A6U G29U G32U A42G U47A C71G | < 1e-05
A12G A14C A64G | 4.13e-05 ± 1.6e-05
A33C G35A G41A | < 1e-05
A12G U31A U45A | 0.000216 ± 6.4e-05
G40C U45C A48G | < 1e-05
G44U C50G U56G | < 1e-05
A12C A15G G66U C67A | 0.000636 ± 0.00013
A14U U30G U54C | 0.00185 ± 0.00046
G43C U46A A48C | < 1e-05
C11G G51C A64C | < 1e-05
G7C A15U G43A A48G C67A | < 1e-05
G29U C58A C68A | 3.43e-05 ± 1.5e-05
C11A A52G C70U | 8.24e-05 ± 3.2e-05

Variants of: B1
Assay: self-cleavage kobs at 640 uM GlcN6P; higher = faster cleavage; RNA array
Settings: with glucosamine-6-phosphate
Method in brief: as §1

Variant | self-cleavage kobs at 640 uM GlcN6P [s⁻¹]
C8A U31A C34U G60C | < 1e-05
A6G U46C U47A | < 1e-05
A14G U47A G66C | 0.000364 ± 0.00011
C10U U30A A33U | < 1e-05
C16U C34A G37A C68G | 0.000275 ± 0.00012
A42C G44U | < 1e-05
A6U A12U G13U U47A C70U | < 1e-05
C11U A14C A39G | 0.000103 ± 3.3e-05
A52C U54G | < 1e-05
C8A G35A G59A C70U | < 1e-05
G9C A33G G35A G63U | < 1e-05
C16U A53U U54G C58A | 3.02e-05 ± 1.5e-05
C34G G40U U46A | < 1e-05
A6G G41A G43C C50G C61U | < 1e-05
U30A A33C G40A C71U | < 1e-05
U45G G60U G62C C70U | < 1e-05
G60U U69A | < 1e-05
A6U U54A | 9.76e-05 ± 2e-05
G41C A64C C67A | < 1e-05
G35A U55G G63A A64G | < 1e-05
G13U G32A A36G G38U | < 1e-05
A15G G37U C58A C70A | 6.04e-05 ± 1.8e-05

Variant | self-cleavage kobs at 640 uM GlcN6P [s⁻¹]
A15G G51U G63U C68G | 9.97e-05 ± 4.5e-05
U46G G51U U56G U69G | 0.000445 ± 0.00011
C34A G40C C61U | < 1e-05
U46A A52C C61U | < 1e-05
C10A A14C A64U | < 1e-05
G29A U56A A64G | 0.000408 ± 0.00012
C50U G63U C68G | 0.000126 ± 5e-05
A14U C34U G37C G51A U55C | < 1e-05
A6U G29U G32U A42G U47A C71G | < 1e-05
G13C G44C G60A | < 1e-05
A33G A36G G38A | < 1e-05
A33C G35A G41A | < 1e-05
G40C U45C A48G | < 1e-05
C11G A15C G32U A33C C50U C71A | 0.000149 ± 4e-05
A14U U30G U54C | 0.000624 ± 0.00011
G43C U46A A48C | < 1e-05
G13U G29U A52C | < 1e-05
A6G G51C A53U C67U | < 1e-05
G7C A15U G43A A48G C67A | < 1e-05
G29U C58A C68A | 0.000121 ± 3.2e-05
C11A A42C U46C C71U | < 1e-05

Variants of: B1
Assay: self-cleavage kobs at 10000 uM GlcN6P; higher = faster cleavage; RNA array
Settings: with glucosamine-6-phosphate
Method in brief: as §1

Variant | self-cleavage kobs at 10000 uM GlcN6P [s⁻¹]
A14G U47A G66C | 0.00125 ± 0.00022
A42C G44U | < 1e-05
C16U A53U U54G C58A | 0.000172 ± 2e-05
G60U U69A | < 1e-05
A6U U54A | 0.000256 ± 4.4e-05
G44A G51U U57A | < 1e-05
G29A U56A A64G | 0.00195 ± 0.00041
G43C U46A A48C | < 1e-05
